Tests used:
[1] = biological target: T1, 5HT3a (Homo sapiens, UniProt P46098); test: Ion channel panel (IonWorks Barracuda): 5HT3a; type: cell-based
T1 construct: host or cells: HEK293 or CHO
T1 sequence (P46098 whole entry, looked up): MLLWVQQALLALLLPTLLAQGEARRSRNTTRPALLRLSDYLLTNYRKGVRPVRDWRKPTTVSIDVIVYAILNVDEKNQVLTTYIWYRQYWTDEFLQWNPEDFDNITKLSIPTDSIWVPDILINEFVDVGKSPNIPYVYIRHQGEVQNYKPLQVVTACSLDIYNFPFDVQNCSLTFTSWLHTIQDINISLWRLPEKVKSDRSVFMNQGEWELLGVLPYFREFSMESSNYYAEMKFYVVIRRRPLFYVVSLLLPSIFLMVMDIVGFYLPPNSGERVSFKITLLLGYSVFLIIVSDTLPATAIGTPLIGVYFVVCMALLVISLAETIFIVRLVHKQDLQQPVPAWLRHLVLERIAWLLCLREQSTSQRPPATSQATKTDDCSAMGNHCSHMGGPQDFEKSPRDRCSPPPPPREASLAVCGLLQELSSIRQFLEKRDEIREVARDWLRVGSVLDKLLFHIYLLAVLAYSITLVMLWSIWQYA
Protocol: (§1) This example describes a method for assaying ion channel activity in cells.
(§2) Peptides were screened in duplicate at final concentrations of 20 μM and 200 nM, as determined by amino acid analysis, and diluted into HEPES buffered physiological saline (HBPS). HEK293 or CHO cells from the American Type Culture Collection (ATCC) were transfected with the appropriate ion channel before use. HEK293 cells were grown in Dulbecco's Modified Eagle Medium/Nutrient Mixture F-12, and CHO cells were cultured in Ham's F-12 media. All cultures were supplemented with 10% fetal bovine serum, 100 U/ml penicillin G, 100 μg/ml streptomycin sulfate, and the appropriate selection antibiotics. Prior to use, cells were washed twice with Hank's Balanced Salt Solution, and treated with Accutase cell detachment solution (Sigma-Aldrich). Cells were then washed. Peptides and controls were incubated with cells for at least five minutes.
(§3) Percent inhibition was defined as: (1-(Ipeptide/Icontrol))×100%).
(§4) Percent values were calculated using the following formula: % activation=(IPeptide/Icontrol)×100%, where IPeptide is the current produced by co-application a peptide with agonist, and Icontrol refers to the current produced by stimulation in control. Control used for each ion channel is the reference compound matched to a particular channel, as illustrated in TABLE 10 below.

[2] = biological target: T2, α3β4 (Homo sapiens, UniProt P30926+P32297); test: Ion channel panel (IonWorks Barracuda): α3β4; type: cell-based; conditions: 100% = no change, <100% = inhibition
T2 construct: host or cells: HEK293 or CHO
Protocol: as §1, §2, §3, §4

[3] = biological target: T3, α4β2 (Homo sapiens, UniProt P17787+P43681); test: Ion channel panel (IonWorks Barracuda): α4β2; type: cell-based; conditions: 100% = no change, <100% = inhibition
T3 construct: host or cells: HEK293 or CHO
Protocol: as §1, §2, §3, §4

[4] = biological target: T4, Cav2.1 (Homo sapiens, UniProt O00555); test: cell-based; conditions: 100% = no change, <100% = inhibition
T4 construct: host or cells: HEK293 or CHO
Protocol: as §1, §2, §3, §4

[5] = biological target: T5, Cav2.2 (Homo sapiens, UniProt Q00975); test: cell-based; conditions: 100% = no change, <100% = inhibition
T5 construct: host or cells: HEK293 or CHO
Protocol: as §1, §2, §3, §4

[6] = biological target: T6, Kv2.1 (Homo sapiens, UniProt Q14721); test: cell-based; conditions: 100% = no change, <100% = inhibition
T6 construct: host or cells: HEK293 or CHO
Protocol: as §1, §2, §3, §4

[7] = tested on: GABA; test: Ion channel panel (IonWorks Barracuda): GABA; type: cell-based; conditions: 100% = no change, <100% = inhibition
Protocol: as §1, §2, §3, §4

[8] = biological target: Nav1.5 (Homo sapiens, UniProt Q14524); test: in vitro; conditions: 100% = no change; for Activity of Nav1.5 with peptide, expressed as a percentage of the reference compound: peptide at 0.2 μM; for Activity of Nav1.5 with peptide (percentage of the reference compound): peptide at 20 μM
Protocol: as §1, §2, §3, §4

[9] = biological target: hERG (Homo sapiens, UniProt Q12809); test: in vitro; conditions: 100% = no change, <100% = inhibition
Protocol: as §1, §2, §3, §4

[10] = biological target: T7, Kir2.1 (Homo sapiens, UniProt P63252); test: Ion channel panel (IonWorks Barracuda): Kir2.1; type: cell-based; conditions: 100% = no change, <100% = inhibition
T7 construct: host or cells: HEK293 or CHO
Protocol: as §1, §2, §3, §4

[11] = biological target: T8, Kv1.1 (Homo sapiens, UniProt Q09470); test: cell-based; type: cell-based; conditions: 100% = no change, <100% = inhibition
T8 construct: host or cells: HEK293 or CHO
Protocol: as §1, §2, §3, §4

[12] = biological target: T9, Kv1.2 (Homo sapiens, UniProt P16389); test: cell-based; type: cell-based; conditions: 100% = no change, <100% = inhibition
T9 construct: host or cells: HEK293 or CHO
Protocol: as §1, §2, §3, §4

[13] = biological target: T10, Kv1.3 (Homo sapiens, UniProt P22001); test: cell-based; type: cell-based; conditions: 100% = no change, <100% = inhibition
T10 construct: host or cells: HEK293 or CHO
Protocol: as §1, §2, §3, §4

[14] = biological target: T11, Nav1.7 (Homo sapiens, UniProt Q15858); test: cell-based; type: cell-based; conditions: 100% = no change; for Activity of Nav1.7 with peptide, expressed as a percentage of the reference compound: peptide at 0.2 μM; for Activity of Nav1.7 with peptide (percentage of the reference compound): peptide at 20 μM
T11 construct: host or cells: HEK293 or CHO
Protocol: as §1
as §2, with “Peptides were screened in duplicate at final concentrations of 20 μM and 200 nM, as determined by amino acid analysis, and diluted into HEPES buffered physiological saline (HBPS).” left out
as §3, §4

[15] = biological target: T12, NR2A (Homo sapiens, UniProt Q12879); test: Ion channel panel (IonWorks Barracuda): NR2A; type: cell-based; conditions: 100% = no change, <100% = inhibition
T12 construct: host or cells: HEK293 or CHO
Protocol: as §1, §2, §3, §4

[16] = biological target: T13, NR2B (Homo sapiens, UniProt Q13224); test: Ion channel panel (IonWorks Barracuda): NR2B; type: cell-based; conditions: 100% = no change, <100% = inhibition
T13 construct: host or cells: HEK293 or CHO
Protocol: as §1, §2, §3, §4

[17] = biological target: T14, TRPA1 (Homo sapiens, UniProt O75762); test: Ion channel panel (IonWorks Barracuda): TRPA1; type: cell-based; conditions: 100% = no change, <100% = inhibition
T14 construct: host or cells: HEK293 or CHO
Protocol: as §1, §2, §3, §4

[18] = biological target: T15, TRPV1 (Homo sapiens, UniProt Q8NER1); test: Ion channel panel (IonWorks Barracuda): TRPV1; type: cell-based; conditions: 100% = no change, <100% = inhibition
T15 construct: host or cells: HEK293 or CHO
Protocol: as §1, §2, §3, §4

[19] = first of two Nav1.5 columns (probably TP1)
[20] = second of two Nav1.5 columns (probably TP2)
[21] = first of two Nav1.7 columns (probably TP1)
[22] = second of two Nav1.7 columns (probably TP2)

T11 sequence (Q15858 whole entry): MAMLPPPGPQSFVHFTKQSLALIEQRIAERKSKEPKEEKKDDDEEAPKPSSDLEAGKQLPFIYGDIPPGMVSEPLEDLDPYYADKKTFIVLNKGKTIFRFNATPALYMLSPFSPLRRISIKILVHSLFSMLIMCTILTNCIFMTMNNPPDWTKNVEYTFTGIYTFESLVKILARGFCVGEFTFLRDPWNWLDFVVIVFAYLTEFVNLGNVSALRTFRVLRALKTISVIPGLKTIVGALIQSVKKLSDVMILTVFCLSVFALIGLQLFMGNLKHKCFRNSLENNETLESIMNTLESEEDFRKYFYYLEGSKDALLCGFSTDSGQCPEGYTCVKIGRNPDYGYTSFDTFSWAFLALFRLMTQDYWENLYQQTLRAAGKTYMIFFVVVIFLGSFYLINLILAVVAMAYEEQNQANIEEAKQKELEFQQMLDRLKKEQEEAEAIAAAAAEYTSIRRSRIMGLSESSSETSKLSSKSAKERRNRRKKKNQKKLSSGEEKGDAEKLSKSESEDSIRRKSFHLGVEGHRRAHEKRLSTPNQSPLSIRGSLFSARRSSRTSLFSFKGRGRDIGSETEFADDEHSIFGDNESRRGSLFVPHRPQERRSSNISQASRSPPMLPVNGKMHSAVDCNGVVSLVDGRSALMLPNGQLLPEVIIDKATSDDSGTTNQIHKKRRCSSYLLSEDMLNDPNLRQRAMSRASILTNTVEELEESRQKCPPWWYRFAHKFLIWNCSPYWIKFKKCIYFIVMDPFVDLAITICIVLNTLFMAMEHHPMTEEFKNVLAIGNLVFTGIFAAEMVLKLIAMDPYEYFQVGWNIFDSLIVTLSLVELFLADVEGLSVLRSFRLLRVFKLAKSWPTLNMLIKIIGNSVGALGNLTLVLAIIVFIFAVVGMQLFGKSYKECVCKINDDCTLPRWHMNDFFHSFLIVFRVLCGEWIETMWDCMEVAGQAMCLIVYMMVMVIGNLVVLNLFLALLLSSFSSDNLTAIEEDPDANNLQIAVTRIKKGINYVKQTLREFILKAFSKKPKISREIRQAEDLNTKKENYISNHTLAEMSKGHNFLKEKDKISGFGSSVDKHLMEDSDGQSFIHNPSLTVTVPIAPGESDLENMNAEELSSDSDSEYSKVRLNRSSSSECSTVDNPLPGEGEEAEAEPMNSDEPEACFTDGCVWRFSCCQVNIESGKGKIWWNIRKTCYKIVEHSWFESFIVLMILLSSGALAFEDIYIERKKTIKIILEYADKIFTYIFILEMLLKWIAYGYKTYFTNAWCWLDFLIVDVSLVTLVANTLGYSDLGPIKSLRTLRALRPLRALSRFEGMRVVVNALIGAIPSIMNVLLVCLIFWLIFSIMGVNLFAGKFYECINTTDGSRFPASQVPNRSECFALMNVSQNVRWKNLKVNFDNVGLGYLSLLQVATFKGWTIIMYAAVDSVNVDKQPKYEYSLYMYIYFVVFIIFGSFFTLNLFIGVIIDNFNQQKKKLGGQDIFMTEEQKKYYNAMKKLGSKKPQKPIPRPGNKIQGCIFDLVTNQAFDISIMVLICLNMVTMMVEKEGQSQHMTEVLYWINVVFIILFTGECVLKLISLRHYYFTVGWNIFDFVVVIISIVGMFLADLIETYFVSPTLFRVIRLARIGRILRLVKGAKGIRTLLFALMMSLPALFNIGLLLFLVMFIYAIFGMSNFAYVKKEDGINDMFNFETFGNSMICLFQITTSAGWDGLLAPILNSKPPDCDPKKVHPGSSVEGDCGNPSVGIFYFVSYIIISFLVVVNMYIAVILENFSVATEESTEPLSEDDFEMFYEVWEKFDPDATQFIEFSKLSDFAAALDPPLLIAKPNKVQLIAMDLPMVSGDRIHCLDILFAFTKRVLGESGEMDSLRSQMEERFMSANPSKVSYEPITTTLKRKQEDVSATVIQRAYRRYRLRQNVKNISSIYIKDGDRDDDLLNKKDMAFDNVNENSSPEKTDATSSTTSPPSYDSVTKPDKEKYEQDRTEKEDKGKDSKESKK
Chain of Nav1.5 (Q14524 whole entry): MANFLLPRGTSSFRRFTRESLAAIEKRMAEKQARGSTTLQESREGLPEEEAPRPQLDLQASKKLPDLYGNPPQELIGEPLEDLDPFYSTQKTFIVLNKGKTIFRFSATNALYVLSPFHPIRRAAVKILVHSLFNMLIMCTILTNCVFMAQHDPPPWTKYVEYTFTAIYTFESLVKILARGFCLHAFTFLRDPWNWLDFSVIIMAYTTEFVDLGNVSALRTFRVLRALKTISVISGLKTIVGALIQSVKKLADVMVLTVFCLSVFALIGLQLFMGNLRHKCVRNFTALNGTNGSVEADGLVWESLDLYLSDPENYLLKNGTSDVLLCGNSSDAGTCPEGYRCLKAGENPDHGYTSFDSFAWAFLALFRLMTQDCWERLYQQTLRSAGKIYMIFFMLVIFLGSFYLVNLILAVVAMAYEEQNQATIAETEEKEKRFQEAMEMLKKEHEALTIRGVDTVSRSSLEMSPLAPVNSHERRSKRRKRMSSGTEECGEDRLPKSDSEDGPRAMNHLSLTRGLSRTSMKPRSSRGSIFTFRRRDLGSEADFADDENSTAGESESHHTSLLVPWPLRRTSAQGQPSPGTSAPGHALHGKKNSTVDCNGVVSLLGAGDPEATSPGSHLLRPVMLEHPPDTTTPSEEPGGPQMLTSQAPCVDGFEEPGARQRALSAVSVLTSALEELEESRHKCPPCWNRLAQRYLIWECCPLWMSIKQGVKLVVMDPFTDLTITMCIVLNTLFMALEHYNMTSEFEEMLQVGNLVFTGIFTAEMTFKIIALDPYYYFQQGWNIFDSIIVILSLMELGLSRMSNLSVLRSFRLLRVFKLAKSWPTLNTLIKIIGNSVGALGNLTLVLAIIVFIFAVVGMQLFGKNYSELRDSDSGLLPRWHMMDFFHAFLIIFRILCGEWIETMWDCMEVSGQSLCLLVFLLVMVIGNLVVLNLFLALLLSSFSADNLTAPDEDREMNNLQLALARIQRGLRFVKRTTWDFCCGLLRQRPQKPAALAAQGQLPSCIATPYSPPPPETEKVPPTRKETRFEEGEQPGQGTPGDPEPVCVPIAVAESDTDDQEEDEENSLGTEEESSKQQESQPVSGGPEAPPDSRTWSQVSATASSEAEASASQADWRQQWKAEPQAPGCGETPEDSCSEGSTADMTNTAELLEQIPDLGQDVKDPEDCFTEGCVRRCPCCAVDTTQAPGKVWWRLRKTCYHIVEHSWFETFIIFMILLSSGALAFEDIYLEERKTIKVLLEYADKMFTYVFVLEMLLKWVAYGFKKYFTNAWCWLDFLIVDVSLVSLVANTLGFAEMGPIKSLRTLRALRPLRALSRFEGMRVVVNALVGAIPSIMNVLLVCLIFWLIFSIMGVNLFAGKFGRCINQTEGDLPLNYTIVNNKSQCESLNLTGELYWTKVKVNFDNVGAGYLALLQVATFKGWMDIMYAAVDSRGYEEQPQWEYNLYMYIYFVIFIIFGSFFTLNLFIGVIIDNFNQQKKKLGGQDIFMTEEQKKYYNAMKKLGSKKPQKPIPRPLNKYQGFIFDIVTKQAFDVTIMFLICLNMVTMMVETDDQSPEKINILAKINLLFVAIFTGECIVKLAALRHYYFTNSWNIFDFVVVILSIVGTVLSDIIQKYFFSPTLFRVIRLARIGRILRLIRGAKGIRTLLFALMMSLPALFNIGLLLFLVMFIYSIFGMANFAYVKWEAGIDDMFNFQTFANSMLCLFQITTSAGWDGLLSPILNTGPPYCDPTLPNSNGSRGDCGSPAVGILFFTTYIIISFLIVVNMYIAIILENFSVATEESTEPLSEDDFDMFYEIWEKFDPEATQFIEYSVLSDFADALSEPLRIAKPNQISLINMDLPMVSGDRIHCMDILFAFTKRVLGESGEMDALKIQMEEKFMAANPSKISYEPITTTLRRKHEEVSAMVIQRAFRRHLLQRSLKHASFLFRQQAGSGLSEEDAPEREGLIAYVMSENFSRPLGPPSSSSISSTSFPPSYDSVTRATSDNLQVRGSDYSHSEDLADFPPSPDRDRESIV
T14 sequence (O75762 whole entry): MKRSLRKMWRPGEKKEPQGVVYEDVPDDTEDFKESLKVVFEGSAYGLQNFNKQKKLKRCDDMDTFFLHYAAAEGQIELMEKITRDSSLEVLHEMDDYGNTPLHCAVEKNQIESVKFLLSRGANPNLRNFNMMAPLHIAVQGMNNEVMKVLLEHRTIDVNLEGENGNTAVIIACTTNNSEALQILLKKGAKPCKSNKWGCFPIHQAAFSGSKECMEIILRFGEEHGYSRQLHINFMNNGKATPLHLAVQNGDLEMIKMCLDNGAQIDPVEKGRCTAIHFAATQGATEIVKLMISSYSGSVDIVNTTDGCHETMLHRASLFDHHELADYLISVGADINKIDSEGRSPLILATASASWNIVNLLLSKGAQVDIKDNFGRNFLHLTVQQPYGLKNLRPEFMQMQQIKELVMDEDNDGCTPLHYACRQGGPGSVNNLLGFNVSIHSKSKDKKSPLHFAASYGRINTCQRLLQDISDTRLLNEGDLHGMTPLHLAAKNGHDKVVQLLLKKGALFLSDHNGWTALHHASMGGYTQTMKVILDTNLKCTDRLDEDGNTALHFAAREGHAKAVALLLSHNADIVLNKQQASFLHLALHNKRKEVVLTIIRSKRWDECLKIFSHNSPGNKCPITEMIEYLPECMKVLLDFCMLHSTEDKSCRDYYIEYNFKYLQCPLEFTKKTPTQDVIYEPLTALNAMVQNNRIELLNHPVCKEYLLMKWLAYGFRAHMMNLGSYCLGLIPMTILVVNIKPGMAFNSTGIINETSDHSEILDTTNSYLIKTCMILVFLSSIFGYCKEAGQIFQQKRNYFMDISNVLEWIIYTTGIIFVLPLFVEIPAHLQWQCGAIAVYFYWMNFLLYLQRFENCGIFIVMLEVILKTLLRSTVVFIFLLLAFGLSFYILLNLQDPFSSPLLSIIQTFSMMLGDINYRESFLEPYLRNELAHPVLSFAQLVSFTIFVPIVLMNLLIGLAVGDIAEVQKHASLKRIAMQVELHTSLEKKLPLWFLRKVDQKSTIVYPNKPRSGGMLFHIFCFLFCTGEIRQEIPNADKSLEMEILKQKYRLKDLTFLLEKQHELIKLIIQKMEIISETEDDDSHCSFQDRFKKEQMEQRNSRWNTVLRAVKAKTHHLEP

With “17 (GSRPTDIKCSASYQCFPVCKSRFGKTNGRCVNGLCDCF) [compound 17]” the “Activity of 5HT3a with peptide (percentage of the reference compound)” value [1] was 85%, the “Activity of 5HT3a with peptide, expressed as a percentage of the reference compound” value [1] was 81% and the “Activity of a3b4 with peptide, expressed as a percentage of the reference compound” value ([2]; peptide at 0.2 μM) was 98%. The “Activity of a3b4 with peptide (percentage of the reference compound)” value ([2]; peptide at 20 μM) was 97%, the “Activity of a4b2 with peptide, expressed as a percentage of the reference compound” value ([3]; peptide at 0.2 μM) was 93% and the “Activity of a4b2 with peptide (percentage of the reference compound)” value ([3]; peptide at 20 μM) was 78%. For the same substance, the “Activity of Cav2.1 with peptide, expressed as a percentage of the reference compound” value ([4]; peptide at 0.2 μM) was 107%, the “Activity of Cav2.1 with peptide (percentage of the reference compound)” value ([4]; peptide at 20 μM) was 90% and the “Activity of Cav2.2 with peptide, expressed as a percentage of the reference compound” value ([5]; peptide at 0.2 μM) was 117%. The “Activity of Cav2.2 with peptide (percentage of the reference compound)” value ([5]; peptide at 20 μM) was 100%, the “Activity of Kv2.1 with peptide, expressed as a percentage of the reference compound” value ([6]; peptide at 0.2 μM) was 88% and the “Activity of Kv2.1 with peptide (percentage of the reference compound)” value ([6]; peptide at 20 μM) was 93%. For the same substance, the “Activity of GABA with peptide, expressed as a percentage of the reference compound” value ([7]; peptide at 0.2 μM) was 97%, the “Activity of GABA with peptide (percentage of the reference compound)” value ([7]; peptide at 20 μM) was 108% and the “Activity of Nav1.5 with peptide, expressed as a percentage of the reference compound” value [8, 19] was 96%. For the same substance, the “Activity of Nav1.5 with peptide, expressed as a percentage of the reference compound” value [8, 20] was 95%, the “Activity of Nav1.5 with peptide (percentage of the reference compound)” value [8, 19] was 95% and the “Activity of Nav1.5 with peptide (percentage of the reference compound)” value [8, 20] was 94%. For the same substance, the “Activity of hERG with peptide, expressed as a percentage of the reference compound” value ([9]; peptide at 0.2 μM) was 85%, the “Activity of hERG with peptide (percentage of the reference compound)” value ([9]; peptide at 20 μM) was 8% and the “Activity of Kir2.1 with peptide, expressed as a percentage of the reference compound” value ([10]; peptide at 0.2 μM) was 103%. The “Activity of Kir2.1 with peptide (percentage of the reference compound)” value ([10]; peptide at 20 μM) was 84%, the “Activity of Kv1.1 with peptide, expressed as a percentage of the reference compound” value ([11]; peptide at 0.2 μM) was 106% and the “Activity of Kv1.1 with peptide (percentage of the reference compound)” value ([11]; peptide at 20 μM) was 89%. For the same substance, the “Activity of Kv1.2 with peptide, expressed as a percentage of the reference compound” value ([12]; peptide at 0.2 μM) was 97%, the “Activity of Kv1.2 with peptide (percentage of the reference compound)” value ([12]; peptide at 20 μM) was 47% and the “Activity of Kv1.3 with peptide, expressed as a percentage of the reference compound” value ([13]; peptide at 0.2 μM) was 96%. For the same substance, the “Activity of Kv1.3 with peptide (percentage of the reference compound)” value ([13]; peptide at 20 μM) was 6%, the “Activity of Nav1.7 with peptide, expressed as a percentage of the reference compound” value [14, 21] was 66% and the “Activity of Nav1.7 with peptide, expressed as a percentage of the reference compound” value [14, 22] was 61%. The “Activity of Nav1.7 with peptide (percentage of the reference compound)” value [14, 21] was 75%, the “Activity of Nav1.7 with peptide (percentage of the reference compound)” value [14, 22] was 60% and the “Activity of NR2A with peptide, expressed as a percentage of the reference compound” value ([15]; peptide at 0.2 μM) was 83%. The “Activity of NR2A with peptide (percentage of the reference compound)” value ([15]; peptide at 20 μM) was 96%, the “Activity of NR2B with peptide, expressed as a percentage of the reference compound” value ([16]; peptide at 0.2 μM) was 90% and the “Activity of NR2B with peptide (percentage of the reference compound)” value ([16]; peptide at 20 μM) was 77%. The “Activity of TRPA1 with peptide, expressed as a percentage of the reference compound” value ([17]; peptide at 0.2 μM) was 176%, the “Activity of TRPA1 with peptide (percentage of the reference compound)” value ([17]; peptide at 20 μM) was 129% and the “Activity of TRPV1 with peptide, expressed as a percentage of the reference compound” value ([18]; peptide at 0.2 μM) was 99%. The “Activity of TRPV1 with peptide (percentage of the reference compound)” value ([18]; peptide at 20 μM) was 82%.
